Measurements: publication PMC11046469, “Leveraging a Phage-Encoded Noncanonical Amino Acid: A Novel Pathway to Potent and Selective Epigenetic Reader Protein Inhibitors” (ACS Central Science, 2024)
Where a SMILES comes first, the peptide text is derived from it. Where no end group is shown, it is not given here. The star is where a group is joined. FITC = O=C1OC2(c3ccc(O)cc3Oc3cc(O)ccc32)c2ccc(NC(=S)*)cc21; Oxazole(5-CO) = O=C(c1cnco1)*; 2Furoyl = O=C(c1ccco1)*; Butyryl = CCCC(=O)*; Ahx = NCCCCCC(=O)O

Tests used:
ENL YEATS (His-ENL) = target: T1, ENL YEATS (His-ENL) (Homo sapiens, UniProt Q03111); assay: Fluorescence polarization binding of tracer to ENL YEATS
T1 construct: (aa 1−148) was cloned in pET19b; made in house; host or cells: E. coli BL21(DE3pLysS)
T1 sequence (Q03111 1-148): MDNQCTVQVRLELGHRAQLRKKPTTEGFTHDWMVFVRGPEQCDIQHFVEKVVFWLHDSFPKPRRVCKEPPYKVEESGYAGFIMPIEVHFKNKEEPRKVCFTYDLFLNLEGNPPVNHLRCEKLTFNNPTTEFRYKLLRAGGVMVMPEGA
Description: Meanwhile, we established a stable cell line for NanoLuc-ENL YEATS expression. The binding of SR-0813T to […] was also validated using a fluorescence polarization assay (Figure S16).
Fluorescence Polarization:
Tracer 1 (10 nM) and varying concentrations of His-ENL (14 nM to 7.2 µM) were mixed in a 200 µL of assay buffer (50 mM HEPES, 100 mM NaCl, 0.01% Tween20, pH: 7.4). The solutions were incubated in black 96-well plates and then measured fluorescence polarization in a microplate reader at Ex/Em = 530 nm/590 nm.
NanoBRET Assay to Validate ENL Inhibitors:
HEK293T/17 cells harboring pCDH-EF1-Nluc-ENL were cultivated in growth medium overnight at 37 °C and 5% CO2. […] Following a quick spin (100 rcf, 1 min), a plate reader equipped with the LUM 610 LP 450 module was used to measure the emissions at 450 nm (donor) […]
The final BRET ratio was calculated by dividing the acceptor emission (610 nm) by the donor emission (450 nm). The BRET ratio was calculated using the following equation: […]
MOLM-13 cells were incubated with test compound (tENL-S1f at a final concentration of 10 and 50 μM) and control (DMSO at a final concentration of 0.1%) for 24 hours. […] Quantitative real-time PCR (qRT-PCR) analyses were performed in triplicate using SYBR Select Master Mix (Applied Biosystems) […]
Gene expressions were calculated following normalization to B2M levels using the comparative C t (cycle threshold) method. […]

MV4-11 cells = format: cell-based
Source text: (§1) For peptides developed for intracellular targets, a common concern is their cellular permeability to engage the targets. For the ENL YEATS domain that is a nuclear protein, its inhibitors will also need to translocate to the nucleus to exert their inhibition activities. […] We attached FITC to tENL-S1o to afford FITC-tENL-S1o that could be fluorescently imaged. […] Although results from this pilot study were very encouraging, the conjugated FITC could have assisted the cellular penetration process. A more accurate assay was needed for the use of unmodified peptides. […] There are three components required to gauge the peptide inhibitory potency for ENL expressed in cells through NanoBRET assays: (1) an ENL YEATS-NanoLuc luciferase fusion protein, (2) a NanoLuc luciferase substrate, and (3) a fluorescent tracer that binds specifically and reversibly to the reader channel of ENL YEATS. […] The cellular potency of peptides can be determined through the decrease in BRET as test peptides engage the ENL YEATS domain and displace the tracer. […]
(§2) Fluorescence microscopy study with FITC-6AHX-tENL-S1o: […]
(§3) Cell proliferation assays were performed in 96-well tissue culture plates (Corning). […] Cell numbers were determined every 3–4 days using the Countess automated cell counter (Invitrogen). […]

MOLM-13 cells = format: cell-based
Source text: as §1, §2, §3

[1] = target: T2, 6xHis-tagged ENL YEATS domain (human, UniProt Q03111 1-148)
T2 chain: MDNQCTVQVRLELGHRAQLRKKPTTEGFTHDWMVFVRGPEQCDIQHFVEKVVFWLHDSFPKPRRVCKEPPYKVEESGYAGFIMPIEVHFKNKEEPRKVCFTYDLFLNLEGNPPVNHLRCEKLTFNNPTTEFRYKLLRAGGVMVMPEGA

AF9 YEATS domain [2] = target: T3, AF9 YEATS domain (human, UniProt P42568 1-138); assay: BLI; His-ENL immobilised on Ni-NTA biosensors, peptides in solution at different concentrations (set-up told for ENL YEATS; the other YEATS domains were analysed 'similarly')
T3 chain: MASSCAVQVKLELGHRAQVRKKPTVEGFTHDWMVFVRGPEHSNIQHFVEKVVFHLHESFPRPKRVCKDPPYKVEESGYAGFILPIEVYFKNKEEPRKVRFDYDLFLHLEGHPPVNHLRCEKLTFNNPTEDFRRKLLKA

AF9 YEATS domain [3] = target: T3, AF9 YEATS domain; assay: BLI
[4] = target: T2, 6xHis-tagged ENL YEATS domain; assay: BLI
AF9 YEATS domain [5] = target: T3, AF9 YEATS domain
[6] = target: T2, 6xHis-tagged ENL YEATS domain; assay: AlphaScreen or HTRF; competition: biotinylated H3K27cr peptide on streptavidin donor beads, His-ENL YEATS on nickel-chelating (Ni-NTA) acceptor beads; test peptide varied; n = 3
[7] = target: T2, 6xHis-tagged ENL YEATS domain; assay: BLI; His-ENL immobilised on Ni-NTA biosensors, peptides in solution at different concentrations (set-up told for ENL YEATS; the other YEATS domains were analysed 'similarly')
AF9 YEATS domain [8] = target: T3, AF9 YEATS domain; assay: AlphaScreen or HTRF; competition: AF9 YEATS and its corresponding acylated histone peptide; test peptide varied; n = 3

O=C(CCC1=[N+]2C(=Cc3ccc(-c4ccc[nH]4)n3[B-]2(F)F)C=C1)NCCCC(=O)Nc1cccc(-c2cn3cc(C(=O)NC4CCC4)ccc3n2)c1 [SR-0813T]
Kd (ENL YEATS (His-ENL)): 1100 nM

CC(C)[C@H](NC(=O)CCCCCNC(=S)Nc1ccc2c(c1)C(=O)OC21c2ccc(O)cc2Oc2cc(O)ccc21)C(=O)N[C@@H](Cc1ccc(O)cc1)C(=O)N[C@@H](CS)C(=O)N[C@@H](Cc1ccc(O)cc1)C(=O)N[C@@H](CCCCNC(=O)c1cnco1)C(N)=O [FITC-tENL-S1o] ({FITC-Ahx}-VYCYK(Oxazole(5-CO))-NH2)
cellular fluorescence (cell penetration) (MV4-11 cells): strong fluorescence within the cells
cellular fluorescence (cell penetration) (MOLM-13 cells): strong fluorescence within the cells

B1: tENL-S1f (peptide)
chain: Ac-VYCYK(2Furoyl)
decrease in qPCR of the ENL target genes HOXA9, MEIS1, MYB and MYC in MOLM-13 cells (endogenous ENL) treated with tENL-S1f at 10 and 50 μM [1]: 30%
growth of MV4;11 cells (MLL-r leukemia line sensitive to ENL depletion; endogenous ENL) treated with tENL-S1f for 14 days [1]: 50%
fold selectivity for ENL YEATS over AF9 (AF9 YEATS domain [2]): 12 fold
Kd (AF9 YEATS domain [3]): 3670 nM
Kd [4]: 307 nM

B2: ENL-S1 (peptide)
chain: YDVYCYK(Butyryl)
IC50 (AF9 YEATS domain [5]): 250 nM
IC50 [6]: 63 nM
Kd [7]: 36.3 nM
kon [7]: 62300 M⁻¹ s⁻¹
fold lower potency (IC50) toward AF9 YEATS than toward ENL YEATS (AF9 YEATS domain [8]): 4 fold
